# Assay results as given in patent US20110301228A1.
# Target: 5-FAM/QXL520 labeled MMP substrate FRET peptide (SensoLyte 520 MMP-1 Assay Kit, AnaSpec)
# Assay: cell-based or functional assay
substance,measurement,value
"recombinant human MMP1 (wild-type), secreted by AdhGRE.MMP1-infected HTM cells and activated with APMA (active form, 41 kDa) (from UniProt P03956 100-469) (enzyme)","relative fluorescence units released on cleavage of the FRET peptide (medium of AdhGRE.MMP1-infected, DEX-treated cells) (relative fluorescence units)",59000
same,"relative fluorescence units released on cleavage of the FRET peptide (medium of AdhGRE.MMP1-infected, untreated cells) (relative fluorescence units)",5710
